Measurements: patent publication US20200123264A1

Legend:
[1] = biological target: extracellular domain of human LEPR with an N-terminal myc-myc tag, GPI-anchored on HEK293 cells (human) (UniProt P48357); experiment: FACS, secondary alone, HEK293/hLEPR-GPI cells, 1 µM Leptin
[2] = biological target: extracellular domain of human LEPR with an N-terminal myc-myc tag, GPI-anchored on HEK293 cells (human) (UniProt P48357); experiment: FACS, secondary alone, HEK293/hLEPR-GPI cells, no added Leptin

Sequence of extracellular domain of human LEPR with an N-terminal myc-myc tag, GPI-anchored on HEK293 cells (human) (P48357 22-839 limits assumed): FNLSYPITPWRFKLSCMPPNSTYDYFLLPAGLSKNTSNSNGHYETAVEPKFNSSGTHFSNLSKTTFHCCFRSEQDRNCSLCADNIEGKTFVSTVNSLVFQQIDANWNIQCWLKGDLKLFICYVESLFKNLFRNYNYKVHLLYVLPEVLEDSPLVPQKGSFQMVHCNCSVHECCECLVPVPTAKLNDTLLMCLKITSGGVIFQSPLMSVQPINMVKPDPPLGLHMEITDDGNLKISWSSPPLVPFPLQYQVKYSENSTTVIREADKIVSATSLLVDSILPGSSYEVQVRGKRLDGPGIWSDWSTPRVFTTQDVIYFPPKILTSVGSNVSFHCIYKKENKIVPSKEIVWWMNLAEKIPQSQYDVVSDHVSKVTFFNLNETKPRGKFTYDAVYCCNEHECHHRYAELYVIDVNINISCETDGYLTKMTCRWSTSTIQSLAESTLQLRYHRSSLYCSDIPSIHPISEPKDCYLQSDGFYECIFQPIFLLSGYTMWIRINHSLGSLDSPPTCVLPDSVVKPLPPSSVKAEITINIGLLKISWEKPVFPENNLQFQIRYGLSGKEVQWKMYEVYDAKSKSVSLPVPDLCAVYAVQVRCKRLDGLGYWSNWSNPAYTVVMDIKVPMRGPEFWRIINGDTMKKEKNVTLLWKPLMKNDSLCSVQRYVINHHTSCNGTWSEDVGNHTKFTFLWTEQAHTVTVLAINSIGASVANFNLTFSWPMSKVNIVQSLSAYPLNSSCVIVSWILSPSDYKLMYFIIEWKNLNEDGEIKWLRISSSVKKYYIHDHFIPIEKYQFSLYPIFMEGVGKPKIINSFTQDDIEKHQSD

Row | Substance | Binding Ratio (normalized to unstained) [1] | Binding Ratio (normalized to unstained) [2]
1 | Anti-human IgG secondary antibody alone | 3 fold | 3 fold
2 | Anti-mouse IgG secondary antibody alone | 2 fold | 2 fold
